According to the supplement of paper PMC10567573:

B1: ZNF24 (parent)
chain: THTKEQILELVVLEQFVAILPKEL

Variants of: B1
Experiment: protein stability index of a GFP-peptide fusion (GPS, HEK-293T) (PSI 1-6); higher = more stable
Conditions: c terminus: a fixed tail appended
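Further: lentivirally expressed fusions sorted by FACS into six bins by GFP to DsRed ratio, PSI derived from sequencing read proportions per bin multiplied by bin number.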

Protein stability index: each site, then its substitutions
V17: P 1.94; K 1.54; S 2.95; C 2.49; I 2.94; H 2.25; E 1.91; T 1.97; N 1.72; F 2.47; L 2.47; G 1.52
T3: A 3.86; F 2.76; D 2.43; L 3.11; S 3.88; I 2.65; V 2; K 2.96; H 2.23; W 3.42; R 2.26; N 3.1; M 3.02
L13: Q 2.34; D 2.29; E 1.9; A 1.51; I 3.27; T 2.77; N 1.73; H 1.76; G 1.84; C 1.98; K 1.69; F 2.47; S 1.55; W 2.67
L8: R 1.85; Q 1.95; S 1.57; T 1.75; E 2.32; M 2.41; A 2.28; V 2.4; K 1.84; I 2.79; G 1.62; F 3.62
A18: Y 2.59; G 2.88; K 2.49; W 2.51; T 2.2; P 2.48; F 1.44; M 1.65; L 2.04; V 2.58; S 1.95
E5: V 3.53; T 3.59; L 2.78; G 2.7; C 2.31; F 2.12; M 3.25; K 2.23; H 2.42; S 1.57; N 3.01; R 3.65
K4: S 2.19; A 2.93; E 1.58; N 2.23; R 1.59; Q 2.59; T 1.83; F 4.57; P 2.23; C 3.41; W 2.88; M 2.91; G 3.12; H 2; L 4.05
T1: F 3.59; A 3.53; K 2.39; N 2.86; V 3.19; S 3.3; E 2.81; C 3.51; M 1.92; R 1.94; I 2.73; Q 1.32
E23: D 2.29; L 1.68; R 2.77; Q 2.54; G 3.15; C 3.17; P 3.16; W 3.51; H 3.33; N 2.97; F 2.69; A 2.59; Y 3.09; K 1.64; S 2.01; I 2.56
V12: Q 2.05; K 2.07; E 2.22; M 2.51; I 3.17; S 2.03; D 2.27; H 1.8; P 2.19; T 1.99; A 1.83; Y 2.64; F 2.93; W 2.42; G 1.98; L 2.12
Q6: L 3.47; W 2.41; R 2.56; C 2.11; F 3.53; T 3.03; Y 4.9; H 1.8; K 3.65; I 3.01; G 3.09; S 2.96; V 3.24; M 3.56; E 2.46; A 2.33
H2: D 4.11; L 4.38; E 2.74; T 2.23; A 3.12; K 3.34; M 3.24; Y 2.19; W 3.14; G 2.96; Q 3.14; F 2.4
P21: Q 2.66; I 1.92; H 3.6; K 3.31; A 3.78; W 3.12; Y 3.02; G 2.21; R 3.28; M 3.76; E 2.23; S 1.42; L 2.44; V 2.28
I7: Q 1.89; V 1.29; P 2.48; R 1.9; A 1.74; M 3.04; T 2.11; W 2.51; Y 3.29; N 1.65; K 1.56; H 2.04; S 2.04; G 1.76; D 2.35; C 1.59
L24: I 2.4; M 2.8; Y 3.41; D 1.67; S 2.86; K 2.33; C 2.88; F 3.54; Q 1.81; E 1.7; A 2.57; N 1.06; G 2.16; V 4.07; H 2.66; P 4.16
E14: H 2.94; F 2.48; N 3.68; Y 3.47; T 2.64; G 3.21; C 2.45; P 2.12; A 2.14; W 3.05; V 1.16; K 2.61; M 2.67
L10: E 2.12; D 2.69; C 2.42; K 2.04; N 2.23; P 2.09; F 2.35; I 2.02; H 1.65; R 1.72; M 2.69; Y 2.69; S 1.72; G 1.7; Q 2.26
F16: S 2.27; L 3.14; W 2.54; I 1.43; A 1.91; T 1.82; N 2.21; H 2.13; K 1.95; V 2.02; M 2.5; Q 2.01; E 2.03; P 1.94; D 2.33; G 1.69; Y 1.76; R 1.99; C 1.77
I19: R 2.16; F 2.22; K 2.14; P 1.73; V 4.1; C 2.61; M 3.34; W 1.85; L 2.38; N 1.7; H 2.32; Y 2.18; G 1.52; S 1.95
V11: E 1.86; R 1.76; C 2.51; N 2.15; T 2; Y 1.91; S 2.03; A 2.1; W 3.42; H 2.18; D 2.36; I 3.03; G 2.05; Q 2.05
Q15: Y 2.18; P 2.4; R 2.81; E 2.55; D 1.91; G 2.95; S 2.93; N 2.81; K 1.75; V 3.51; A 2; L 2.44
L20: P 2.78; Q 3.05; D 2.6; A 3.07; M 1.95; N 1.83; I 3.78; C 2.24; G 1.94; Y 1.46; E 2.23
K22: C 2.67; D 3.16; H 2.12; F 3.51; M 3.15; R 2.78; W 2.08; N 2.39; Y 2.9; G 4.16; S 3.45; T 2.89; V 2.71
E9: F 2.82; G 2.85; S 3.48; C 1.64; P 2.93; A 3.22; W 2.87; K 2.77; M 2.04; R 2.49; T 2.29; N 2.82; H 3.25; D 2.28; Q 2.69; V 3.25
